This is an account of results in US20250289893A1 (OXFORD UNIVERSITY INNOVATION, published 2025).

Experiment [1] has as its target Chinese variant CD1a protein (human) (UniProt P06126). Put plainly: ELISA, 1 µg/ml antibody.
In experiment [2] the target is chimeric CD1a pool B protein [human CD1a lipid binding domain, mouse CD1d Ig domain] (human; mouse) (UniProt P06126). The experiment can be described thus: ELISA, 1 µg/ml antibody.
Experiment [3] addresses Chinese variant CD1a protein (human) (UniProt P06126). The experiment can be described thus: ELISA, 10 µg/ml antibody.
The target in experiment [4] is chimeric CD1a pool B protein [human CD1a lipid binding domain, mouse CD1d Ig domain] (human; mouse) (UniProt P06126). The experiment can be described thus: ELISA, 10 µg/ml antibody.
Experiment [5] shares this target. Put plainly: ELISA, 100 µg/ml antibody.
The target of experiment [6] is Chinese variant CD1a protein (human) (UniProt P06126). The experiment can be described thus: ELISA, 0.1 µg/ml antibody.
Chain of Chinese variant CD1a protein (human) (P06126 18-295, stated change not applied): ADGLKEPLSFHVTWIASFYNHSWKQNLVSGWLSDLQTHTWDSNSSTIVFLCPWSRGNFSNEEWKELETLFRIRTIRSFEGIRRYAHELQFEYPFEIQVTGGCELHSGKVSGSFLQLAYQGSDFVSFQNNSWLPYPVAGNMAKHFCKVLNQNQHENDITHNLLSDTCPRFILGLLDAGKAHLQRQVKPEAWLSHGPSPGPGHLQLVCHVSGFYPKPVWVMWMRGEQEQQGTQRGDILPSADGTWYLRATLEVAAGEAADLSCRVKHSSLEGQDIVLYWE
Experiment [7] has as its target chimeric CD1a pool B protein [human CD1a lipid binding domain, mouse CD1d Ig domain] (human; mouse) (UniProt P06126). Put plainly: ELISA, 0.1 µg/ml antibody.
Experiment [8] has as its target T1, human CD1a protein (pool B) (human, UniProt P06126 18-295, limits assumed).
T1 construct: Recombinant protein of the ELISA (coated) and the Biacore T200 titration; whole entry named; also called human CD1a pool B; full length CD1a
The experiment can be described thus: ELISA, 3.16 µg/ml antibody.

Experiment [9] addresses chimeric CD1a pool B protein [human CD1a lipid binding domain, mouse CD1d Ig domain] (human; mouse) (UniProt P06126). The experiment can be described thus: ELISA, 3.16 µg/ml antibody.
Experiment [10] has as its target T1, human CD1a protein (pool B). The experiment can be described thus: ELISA, 31.6 µg/ml antibody.
The target in experiment [11] is chimeric CD1a pool B protein [human CD1a lipid binding domain, mouse CD1d Ig domain] (human; mouse) (UniProt P06126). The experiment can be described thus: ELISA, 31.6 µg/ml antibody.
In experiment [12] the target is Chinese variant CD1a protein (human) (UniProt P06126). The experiment can be described thus: ELISA, 0.01 µg/ml antibody.
In experiment [13] the target is chimeric CD1a pool B protein [human CD1a lipid binding domain, mouse CD1d Ig domain] (human; mouse) (UniProt P06126). The experiment can be described thus: ELISA, 0.316 µg/ml antibody.
For experiment [14] the target is unchanged. Put plainly: ELISA, 0.0316 µg/ml antibody.
Experiment [15] addresses T1, human CD1a protein (pool B). The experiment can be described thus: ELISA, 1 µg/ml antibody.
Experiment [16] has as its target T2, Cynomolgus monkey CD1a protein (Cynomolgus monkey).
T2 chain: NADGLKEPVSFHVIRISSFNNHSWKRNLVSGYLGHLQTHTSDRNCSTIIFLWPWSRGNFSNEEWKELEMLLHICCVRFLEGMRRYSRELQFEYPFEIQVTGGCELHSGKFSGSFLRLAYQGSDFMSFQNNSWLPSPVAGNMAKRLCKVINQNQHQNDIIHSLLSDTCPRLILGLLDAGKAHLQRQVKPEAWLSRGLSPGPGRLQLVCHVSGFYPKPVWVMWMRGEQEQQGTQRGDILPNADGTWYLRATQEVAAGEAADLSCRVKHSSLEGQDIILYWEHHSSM
The experiment can be described thus: ELISA, 1 µg/ml antibody.

Experiment [17] addresses T1, human CD1a protein (pool B). The experiment can be described thus: ELISA, 10 µg/ml antibody.
In experiment [18] the target is T2, Cynomolgus monkey CD1a protein. Put plainly: ELISA, 10 µg/ml antibody.
The target of experiment [19] is T1, human CD1a protein (pool B). Put plainly: ELISA, 0.1 µg/ml antibody.
For experiment [20] the target is unchanged. The experiment can be described thus: ELISA, 100 µg/ml antibody.
For experiment [21], the target named is T2, Cynomolgus monkey CD1a protein. Put plainly: ELISA, 0.1 µg/ml antibody.
For experiment [22] the target is unchanged. The experiment can be described thus: ELISA, 0.01 µg/ml antibody.
Experiment [23] has as its target T1, human CD1a protein (pool B). Put plainly: ELISA, 0.316 µg/ml antibody.
The target is the same in experiment [24]. The experiment can be described thus: ELISA, 0.0316 µg/ml antibody.
Experiment [25] deals with T3, human CD1a expressed on cells (human, UniProt P06126 17-327; P61769 21-119).
T3 construct: also called HEK - CD1a; C1R - CD1a
Put plainly: flow cytometry of ear skin cells of CD1a transgenic mice given antibody 116 100 µg i.p. on days 0, 2, 4 (CD1a : OX116), stained with SK9 on day 5; no percent sign printed.

Experiment [26] deals with T3, human CD1a expressed on cells. Put plainly: flow cytometry of ear skin cells of CD1a transgenic mice given isotype control (CD1a : iso), stained with SK9; gated population not named on the sheet; no percent sign printed.
Experiment [27] has the same target. Put plainly: flow cytometry of ear skin cells of CD1a transgenic mice given isotype control (CD1a : iso), stained with HI149; gated population not named on the sheet; no percent sign printed.
The target is the same in experiment [28]. The experiment can be described thus: flow cytometry of ear skin cells of CD1a transgenic mice given antibody 116 100 µg i.p. on days 0, 2, 4 (CD1a : OX116), stained with HI149 on day 5; the cloud lies on the lower edge of the gate; no percent sign printed.
In experiment [29] the target is T4, Human CD1a/β2m heterodimer (soluble, de-glycosylated) (human, UniProt P61769 21-119).
T4 construct: Expressed in HEK293S cells with fos-jun zippers, BirA tag and His-tag, which were cleaved off with thrombin; deglycosylated with EndoH; Carries endogenous lipids or a loaded lipid (named under assay); also called CD1a-endo; CD1a-sphingomyelin
Put plainly: SPR, OX16-scFv immobilised, CD1a-GD3 (GD3 ganglioside) injected up to 1000 nM; 1:1 specific binding fit; row printed as Kd, unit nM from the legend paragraph 90.

The target of experiment [30] is T4, Human CD1a/β2m heterodimer (soluble, …). The experiment can be described thus: SPR, OX16-scFv immobilised, CD1a-SM24:1 (sphingomyelin) injected up to 1000 nM; 1:1 specific binding fit; row printed as Kd, unit nM from the legend paragraph 90.
Experiment [31] has the same target. The experiment can be described thus: SPR, OX16-scFv immobilised, CD1a-LPC (lysophosphatidylcholine) injected up to 1000 nM; 1:1 specific binding fit; row printed as Kd, unit nM from the legend paragraph 90.
The target is the same in experiment [32]. The experiment can be described thus: SPR, OX16-scFv immobilised on streptavidin chip, CD1a-endo (endogenous lipids) injected up to 1000 nM; 1:1 specific binding fit of response against concentration; row printed as Kd, unit nM from the legend paragraph 90.
Experiment [33] has as its target Chinese variant CD1a protein (human) (UniProt P06126). Put plainly: ELISA on coated minor CD1A variant protein; antibody concentration not given.
The target in experiment [34] is chimeric CD1a pool B protein [human CD1a lipid binding domain, mouse CD1d Ig domain] (human; mouse) (UniProt P06126). The experiment can be described thus: ELISA on chimeric CD1a (human alpha 1 and alpha 2 domains, murine CD1d alpha 3 domain), size exclusion pool B; antibody concentration not given.
Experiment [35] deals with T1, human CD1a protein (pool B). Put plainly: Biacore, column KD1 of the heterogeneous ligand model; no unit on the sheet or in the legend, M taken from Table 10 of the same Biacore method.
Experiment [36] shares this target. The experiment can be described thus: Biacore, column KD2 of the heterogeneous ligand model; no unit on the sheet or in the legend, M taken from Table 10 of the same Biacore method.
Experiment [37] has as its target T4, Human CD1a/β2m heterodimer (soluble, …). Put plainly: SPR, OX116-scFv immobilised, CD1a-GD3 (GD3 ganglioside) injected up to 1000 nM; 1:1 specific binding fit; row printed as Kd, unit nM from the legend paragraph 90.
For experiment [38] the target is unchanged. Put plainly: SPR, OX116-scFv immobilised, CD1a-SM24:1 (sphingomyelin) injected up to 1000 nM; 1:1 specific binding fit; row printed as Kd, unit nM from the legend paragraph 90.
The target is the same in experiment [39]. The experiment can be described thus: SPR, OX116-scFv immobilised, CD1a-LPC (lysophosphatidylcholine) injected up to 1000 nM; 1:1 specific binding fit; row printed as Kd, unit nM from the legend paragraph 90.
The target is the same in experiment [40]. Put plainly: SPR, OX116-scFv immobilised on streptavidin chip, CD1a-endo (endogenous lipids) injected up to 1000 nM; 1:1 specific binding fit of response against concentration; row printed as Kd, unit nM from the legend paragraph 90.

T1 sequence (P06126 18-295 limits assumed): as the sequence (P06126 18-295, stated change not applied) above
Chain of chimeric CD1a pool B protein [human CD1a lipid binding domain, mouse CD1d Ig domain] (human; mouse) (P06126 other isoform, or with tags, fused parts or gaps mutant limits assumed): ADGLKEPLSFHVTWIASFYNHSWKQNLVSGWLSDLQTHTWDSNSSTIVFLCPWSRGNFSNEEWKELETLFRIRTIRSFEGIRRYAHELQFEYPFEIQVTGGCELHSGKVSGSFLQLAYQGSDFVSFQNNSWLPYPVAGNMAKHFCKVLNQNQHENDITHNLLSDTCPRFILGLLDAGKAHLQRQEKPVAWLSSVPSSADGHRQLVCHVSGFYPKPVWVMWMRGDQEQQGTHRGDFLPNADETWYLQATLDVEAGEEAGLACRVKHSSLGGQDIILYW

With control rabbit IgG antibody, the Optical Density (OD) in experiment [1] was 0.08 OD; in [2] it was 0.09 OD; in [3] it was 0.14 OD; in [4], 0.08 OD; in experiment [5], 0.08 OD; in [6] it was 0.08 OD. The Optical Density (OD) in experiment [7] turned out to be 0.08 OD; in experiment [8], 0.06 OD; in experiment [9], 0.1 OD; in experiment [10], 0.06 OD; in experiment [11] it was 0.08 OD; in [12], 0.08 OD. Also, the Optical Density (OD) in experiment [13] was 0.09 OD; in experiment [14], 0.09 OD; in [15], 0.07 OD; in experiment [16] it was 0.07 OD; in experiment [17] it was 0.07 OD; in [18] it was 0.09 OD. In addition, the Optical Density (OD) in experiment [19] amounted to 0.06 OD; in [20] it was 0.07 OD; in [21] it was 0.07 OD; in [22], 0.06 OD; in experiment [23], 0.07 OD; in experiment [24], 0.06 OD.
In the case of SK9 (antibody), the CD1a+ (gate frequency) turned out to be 87.4% in experiment [25] and 84.9% in experiment [26].
As to HI149 (antibody), the CD1a+ (gate frequency) was 82.2% in experiment [27] and 46.6% in [28].

B1: OX16 scFv (scFv)
scFv: DAEVQLVESGGGLVKPGGSLKLSCAASGFTFSNYAMSWVRQTPEKRLEWVAAINSNGGSAYYPDTVKDRFTISRDNAKNTLYLQMSSLRSEDTALYYCARRFYYDYGWFAYWGQGTLVTVSSGGGGSGGGGSGGGGSDIVLTQSPASLSASVGETVTITCRASENIDSYLAWYQQKQGKSPQLLVYAATLLADGVPSRFSGSGSGTQYSLKINSLQSEDVARYYCQHYYSSPWTFGGGTKLEIKSGLEVLFQGPGSGLNDIFEAQKIEWHEHHHHHH
notes: SPR: biotinylated on the C-terminal tag and coupled to streptavidin; Crystals: BirA and His-tag cleaved off with 3C protease; also called 16 ScFv full; single chain variable construct of OX16
With B1, the Kd came out at 1270 nM in [29], 860 nM in experiment [30], 1010 nM in experiment [31] and 476 nM in [32].

B2: OX25 (antibody, V domains shown)
VH: QVQLQQSGPGLVAPSQSLFITCTVSGFSLTTYEINWVRQPPGKGLEWLGVIWTGGSTNYNSALISRLSISKDNSKSLVFLKMNSLQTDDTAIYYCVRTLPYYYAMDYWGQGTSVTVSS
VL: EIVLTQSPALMAASPGEKVTITCSVSSSISSSNLHWYQQKSGTSPKPWIYGTSNLASGVPVRFSGSGSGTSYSLTISSMEAEDAATYYCQQWSSYPPTFGSGTKLEIK
notes: also called antibody 25; Ab 25
For the molecule B2, the optical density (ELISA) in [33] worked out at 0.736; in experiment [34] it was 0.11. The results for the dissociation constant Kd in experiment [35] and in [36] were 15 nM and 2.1 nM, respectively.

B3: OX116 scFv (scFv)
scFv: DAQSVEESGGRLVTPGTPLTLTCTVSGFSLSNYAMSWVRQAPGKGLEWIGIIYTTGFTYYASWVKGRFTISKTSTTVDLKITSPTTEDTATYFCARGLATYVSPPTRLDLWGQGTLVTVSSGGGGSGGGGSGGGGSAQVLTQTPSPVSAAVGGTVTINCQASQSIYNSKNLAWYQQKPGQPPKLLIYSASTLASGVPSRFKGSGSGTQFTLTISDLESDDAATYYCQGEFSCSSVDCATFGGGTEVVVKSGLEVLFQGPGSGLNDIFEAQKIEWHEHHHHHH
notes: SPR: biotinylated on the C-terminal tag and coupled to streptavidin; Crystals: tags cleaved off with 3C protease; also called OX116 Ab fragment
For the molecule B3, the Kd in experiment [37] amounted to 329 nM; in [38], 529 nM; in experiment [39], 1520 nM; in experiment [40] it was 483 nM.
